# Entries after “also recorded” stand apart in the source; their conditions may differ. The star is where a group is joined. Biotin = O=C1N[C@H]2[C@H](CS[C@H]2CCCCC(=O)*)N1
# B1: Peptide 4 (peptide)
# peptide: Biotin-LKTKIKIIVKTKSSAKLRSKLVNSHKI-OH
# SMILES: CC[C@H](C)[C@H](NC(=O)[C@H](CCCCN)NC(=O)[C@H](Cc1c[nH]cn1)NC(=O)[C@H](CO)NC(=O)[C@H](CC(N)=O)NC(=O)[C@@H](NC(=O)[C@H](CC(C)C)NC(=O)[C@H](CCCCN)NC(=O)[C@H](CO)NC(=O)[C@H](CCCNC(=N)N)NC(=O)[C@H](CC(C)C)NC(=O)[C@H](CCCCN)NC(=O)[C@H](C)NC(=O)[C@H](CO)NC(=O)[C@H](CO)NC(=O)[C@H](CCCCN)NC(=O)[C@@H](NC(=O)[C@H](CCCCN)NC(=O)[C@@H](NC(=O)[C@@H](NC(=O)[C@@H](NC(=O)[C@H](CCCCN)NC(=O)[C@@H](NC(=O)[C@H](CCCCN)NC(=O)[C@@H](NC(=O)[C@H](CCCCN)NC(=O)[C@H](CC(C)C)NC(=O)CCCC[C@@H]1SC[C@@H]2NC(=O)N[C@@H]21)[C@@H](C)O)[C@@H](C)CC)[C@@H](C)CC)[C@@H](C)CC)C(C)C)[C@@H](C)O)C(C)C)C(=O)O
# notes: Variant of peptide 8h-2; biotinylated synthetic peptide
# B2: Peptide 7c (peptide)
# peptide: Biotin-KTKATVKIKNKQKSVNALKQKIVLLSK-OH
# SMILES: CC[C@H](C)[C@H](NC(=O)[C@H](CCCCN)NC(=O)[C@@H](NC(=O)[C@@H](NC(=O)[C@H](C)NC(=O)[C@H](CCCCN)NC(=O)[C@@H](NC(=O)[C@H](CCCCN)NC(=O)CCCC[C@@H]1SC[C@@H]2NC(=O)N[C@@H]21)[C@@H](C)O)[C@@H](C)O)C(C)C)C(=O)N[C@@H](CCCCN)C(=O)N[C@@H](CC(N)=O)C(=O)N[C@@H](CCCCN)C(=O)N[C@@H](CCC(N)=O)C(=O)N[C@@H](CCCCN)C(=O)N[C@@H](CO)C(=O)N[C@H](C(=O)N[C@@H](CC(N)=O)C(=O)N[C@@H](C)C(=O)N[C@@H](CC(C)C)C(=O)N[C@@H](CCCCN)C(=O)N[C@@H](CCC(N)=O)C(=O)N[C@@H](CCCCN)C(=O)N[C@H](C(=O)N[C@H](C(=O)N[C@@H](CC(C)C)C(=O)N[C@@H](CC(C)C)C(=O)N[C@@H](CO)C(=O)N[C@@H](CCCCN)C(=O)O)C(C)C)[C@@H](C)CC)C(C)C
# notes: Variant of 17x-3; biotinylated synthetic peptide
# B3: Peptide BHP4 (peptide)
# peptide: Biotin-TNLRNKYTFLARARANLAVRNKQNIKS-OH
# SMILES: CC[C@H](C)[C@H](NC(=O)[C@H](CC(N)=O)NC(=O)[C@H](CCC(N)=O)NC(=O)[C@H](CCCCN)NC(=O)[C@H](CC(N)=O)NC(=O)[C@H](CCCNC(=N)N)NC(=O)[C@@H](NC(=O)[C@H](C)NC(=O)[C@H](CC(C)C)NC(=O)[C@H](CC(N)=O)NC(=O)[C@H](C)NC(=O)[C@H](CCCNC(=N)N)NC(=O)[C@H](C)NC(=O)[C@H](CCCNC(=N)N)NC(=O)[C@H](C)NC(=O)[C@H](CC(C)C)NC(=O)[C@H](Cc1ccccc1)NC(=O)[C@@H](NC(=O)[C@H](Cc1ccc(O)cc1)NC(=O)[C@H](CCCCN)NC(=O)[C@H](CC(N)=O)NC(=O)[C@H](CCCNC(=N)N)NC(=O)[C@H](CC(C)C)NC(=O)[C@H](CC(N)=O)NC(=O)[C@@H](NC(=O)CCCC[C@@H]1SC[C@@H]2NC(=O)N[C@@H]21)[C@@H](C)O)[C@@H](C)O)C(C)C)C(=O)N[C@@H](CCCCN)C(=O)N[C@@H](CO)C(=O)O
# notes: Variant of BHP3; biotinylated synthetic peptide; also called BPH4
# Key:
# [1] = Transmission electron microscopy (TEM) of peptide nanostructures; format: physicochemical
# Method: The sample and stain were filter-dried in between steps. Samples were collected 24 hours at 37° C. after 30 minutes of sonication. All TEM was performed on a Philips FEI Technai Spirit G2 electron microscope. Peptides were incubated in both PBS and SC.
# [2] = system: extracellular matrix (ECM) components: Collagen type I, II, III and IV, elastin, hyaluronic acid and Geltrex; experiment: ECM specificity binding test, whole panel; conditions: 5.0 mg/ml peptide, FIG. 4
# Method: (§1) Peptides were incubated 24 hours at 37° C. on collagens I-IV, elastin, hyaluronic acid, and Geltrex. Coatings (10 pig/cm^2) were previously dried overnight in milli-Q water. Overall significance was assessed using analysis of variance, with Tukey's multiple comparison post-hoc analysis between ECM groups where n=4.
# (§2) Hyaluronic acid, collagens I, II, III, and IV, elastin, and Geltrex were coated onto 96-well black plates (medium binding affinity) at 10 μg/cm^2 and were dried in milli-Q water at room temperature. N-termini biotinylated peptides were added to coated plates at 0, 1, 2.5, 5 and 10 mg/ml overnight at 37° C. in phosphate buffered saline (PBS), pH 7.4, after which the plates were washed three times with PBS. Fluorescent streptavidin-488 (4 μg/mL) was added to each well and incubated at 37° C. temperature for 24 hours, then thoroughly washed with PBS. The plates were read with a fluorescence microplate reader for fluorescence intensity (Ex 490 nm, Em 525 nm). All data were normalized to the background fluorescence intensity of Streptavidin-488.
# [3] = Circular dichroism (CD) of peptides; format: physicochemical; conditions: 20 mM Sodium Cacodylate; for Ellipticity ratio (222 nm/208 nm) / Ellipticity 208 nm / Ellipticity 222 nm: 1.25 mg/mL; for Ellipticity 208 nm / Ellipticity 222 nm: CD data given as [θ]M×10^−3; for wavelength Minimum of CD profile: 5.0 mg/mL
# Method: Data is presented in ellipticity ([θ]M×10^−3) as a function of spectral wavelength (λ).
# Sodium cacodylate (SC), 20 mM pH 7.4, without and with 20% TFE was used to reduce phosphate related background signal and enhance detected structures. Circular dichroism (CD) data were collected in millidegrees, 0, and converted to molar ellipticity, [θ]M, and are expressed in units of deg×cm^2×dmol^−1. Scan speeds and digital integration times were 500 nm/min and 1 second, respectively. The data on the Y axis of the CD plots is [θ]M×10^−3. […] Consequently, CD signals are reported in the 190-260 nm range.
# [4] = ECM specificity binding test, hyaluronic acid coating; conditions: 5.0 mg/ml peptide, FIG. 4
# Method: as §1, §2
# [5] = Concentration-dependent peptide binding to hyaluronic acid coating (biotin-streptavidin fluorescence)
# Method: Peptides were incubated 24 hours at 37° C. Coatings (10 μg/cm^2) were previously dried overnight in milli-Q water. Overall significance was assessed using analysis of variance, with Tukey's multiple comparison post-hoc analysis between 1-scrm and experimental groups where n=4.
# N-termini biotinylated peptides were added to coated plates at 0, 1, 2.5, 5 and 10 mg/ml overnight at 37° C. in phosphate buffered saline (PBS), pH 7.4, after which the plates were washed three times with PBS.
# elastin = molecular target: T1, elastin (Bos taurus, UniProt P04985); experiment: ECM specificity binding test, elastin coating; design: species or system bovine; conditions: 5.0 mg/ml peptide, FIG. 4
# T1 construct: purchased Sigma-Aldrich
# T1 sequence (P04985 27-747): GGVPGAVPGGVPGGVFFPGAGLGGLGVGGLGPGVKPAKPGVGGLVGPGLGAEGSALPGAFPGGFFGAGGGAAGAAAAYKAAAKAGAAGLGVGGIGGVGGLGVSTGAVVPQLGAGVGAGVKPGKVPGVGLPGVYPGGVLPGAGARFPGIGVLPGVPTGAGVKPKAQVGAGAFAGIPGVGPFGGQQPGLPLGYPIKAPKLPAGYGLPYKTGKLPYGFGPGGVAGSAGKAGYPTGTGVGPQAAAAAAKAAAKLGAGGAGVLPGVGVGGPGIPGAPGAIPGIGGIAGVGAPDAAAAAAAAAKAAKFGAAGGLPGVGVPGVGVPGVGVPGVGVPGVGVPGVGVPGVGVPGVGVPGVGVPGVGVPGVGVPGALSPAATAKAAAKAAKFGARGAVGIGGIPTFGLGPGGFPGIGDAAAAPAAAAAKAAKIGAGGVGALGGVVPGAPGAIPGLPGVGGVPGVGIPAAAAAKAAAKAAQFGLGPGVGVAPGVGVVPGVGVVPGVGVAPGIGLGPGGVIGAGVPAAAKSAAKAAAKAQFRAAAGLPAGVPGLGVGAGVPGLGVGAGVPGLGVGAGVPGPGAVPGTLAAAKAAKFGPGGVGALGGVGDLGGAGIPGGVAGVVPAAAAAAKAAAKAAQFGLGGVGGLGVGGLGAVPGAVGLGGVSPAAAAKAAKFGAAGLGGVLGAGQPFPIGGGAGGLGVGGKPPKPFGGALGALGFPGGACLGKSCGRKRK
# Method: as §1
# Biotinylated peptides were custom synthesized by ABI Scientific, Inc. (Sterling, VA). Uranyl acetate and TEM grids were from Ted Pella, Inc (Redding, CA). Unless specified otherwise, all water used in these experiments was Milli-Q grade. HA (˜1 MDa), collagen types I (rat), II (chicken), III (human), and IV (mouse), elastin (bovine), deuterium oxide (D2O), acetic acid-d4, sodium acetate-d3, 3-(Trimethylsilyl)propionic-2,2,3,3-d6 (DSS-D6) acid sodium salt, and 2,2,2-trifluoroethanol (TFE) and were obtained from Sigma-Aldrich (St. Louis, MO). Streptavidin (Alexa Fluor 488 conjugate) and Geltrex were obtained from Thermo Fisher Scientific Inc. (Waltham, MA). Sodium hyaluronate (5 and 60 KDa) was purchased from Lifecore Biomedical LLC (Chaska, MN). In reference to terminology, N and C termini is used to describe the amino terminal (N) and the carboxyl terminal (C) of the peptide. The biotinylated peptides are used in every experiment.
# as §2
# elastin (bovine) = molecular target: T2, elastin (bovine) (bovine, UniProt P04985 27-747, limits assumed); experiment: plate assay: biotinylated peptide (5.0 mg/ml) on dried ECM coating, streptavidin-488 fluorescence
# T2 construct: Coated and dried on plates at 10 ug/cm2
# T2 sequence (looked up): T1 sequence (P04985 27-747)
# Method: Peptides were incubated 24 hours at 37° C. on collagens I-IV, elastin, hyaluronic acid, and Geltrex. Coatings (10 pig/cm²) were previously dried overnight in milli-Q water. Overall significance was assessed using analysis of variance, with Tukey's multiple comparison post-hoc analysis between ECM groups where n=4.
# N-termini biotinylated peptides were added to coated plates at 0, 1, 2.5, 5 and 10 mg/ml overnight at 37° C. in phosphate buffered saline (PBS), pH 7.4, after which the plates were washed three times with PBS. Fluorescent streptavidin-488 (4 μg/mL) was added to each well and incubated at 37° C. temperature for 24 hours, then thoroughly washed with PBS. The plates were read with a fluorescence microplate reader for fluorescence intensity (Ex 490 nm, Em 525 nm). All data were normalized to the background fluorescence intensity of Streptavidin-488.
molecule,measurement,setting,value
"LKTKIKIIVKTKSSAKLRSKLVNSHKI [Peptide 4, 8h-2 variant]","TEM characterization, Phosphate Buffered Saline (i)","[1]; PBS pH 7.4, 0.5% w/v, 30 minutes sonication, 24 hrs at 37° C.",fibers that contain two striations (fibrils)
same,"nanofiber formation in TEM, overall",[1]; both PBS and sodium cacodylate,consistent nanofibers; also recorded: predominantly form fibers with striations and furthermore form a mesh network
same,specificity of binding to ECMs,[2],lower specificity than 17x-3
same,Ellipticity ratio (222 nm/208 nm),[3],0.54
same,Ellipticity 208 nm,[3],−112
same,Ellipticity 222 nm,[3],−60.3
same,wavelength Minimum of CD profile,[3],225 nm
same,Ellipticity ratio (222 nm/208 nm),[3]; 20% TFE,0.97
same,Ellipticity 208 nm,[3]; 20% TFE,−364
same,Ellipticity 222 nm,[3]; 20% TFE,−353
same,wavelength Minimum of CD profile,[3]; 20% TFE,224 nm
same,binding to hyaluronic acid in specificity testing,[4],predominantly
same,binding to hyaluronic acid with increasing concentrations of peptide (fluorescence intensity),"[5]; 0-10 mg/ml peptide, PBS pH 7.4, 37° C., HA coating 10 μg/cm^2, FIG. 3",increases dramatically
same,"HA binding, overall assessment",[5]; summary and discussion statements,comparable binding; also recorded: HA specific and robust binders
same,binding to elastin,elastin,moderately
B1,binding result,elastin (bovine),binds
B2,binding result,elastin (bovine),binds
B3,binding result,elastin (bovine),binds
